# Laboratory results published in patent US20110065632A1, “PHARMACEUTICAL COMPOSITIONS OF SOMATOSTATIN-DOPAMINE CONJUGATES” (priority 2008, published 2011).
# Assays:
# [1] = molecular target: T1, hsst2 (Homo sapiens, UniProt P30874); assay: Somatostatin receptor radioligand binding assay, hsst2; conditions: CHO-K1 membranes, [125I]MK-678; read-out: hsst2 Ki
# T1 construct: expressed in transfected cells
# Procedure, shortened: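 Membranes from CHO-K1 cells stably expressing human SSTR2, in 10 mM Tris-HCl, incubated 90 min at 25 °C with 0.05 nM [125I]MK-678. Bound ligand collected by filtration on PEI-soaked GF/C filters; nonspecific binding defined with 1000 nM MK-678.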
# [2] = Solubility of Example 1 at various concentrations of DMA and PEG400; type: physicochemical
# Protocol: A compound that may advantageously be used to practice the invention can be tested to determine its solubility at different DMA and PEG400 concentrations using the following procedure.
# To about 1 mg of Example 1 were added increasing volumes of the above solvents or buffers. When a soluble volume was reached, the concentration was calculated by weight/volume. When Example 1 was not soluble, the solution was centrifuged and the supernatant was analyzed by HPLC to determine the concentrations. The determined concentration is treated as the solubility of Example 1 in that solvent or buffer.
# The solution pHs were checked. They were about pH 7. No further adjustment was done.
# [3] = molecular target: T2, sst2-D2 (Homo sapiens, UniProt P14416+P30874); assay: cAMP Responsive Element-Luciferase reporter gene assay, sst2-D2 co-transfected HEK-293 cells; type: cell-based; conditions: read-out: IC50 value of cAMP inhibition
# T2 construct: expressed in transfected cells; host or cells: HEK-293, transient co-transfection
# Protocol: A cAMP Responsive Element-Luciferase reporter gene assay in HEK-293 cells was used in this assay, wherein said HEK-293 cells were transiently transfected with D2 and/or sst2 cDNA. […] In sst2-monotransfected cells, the IC50 value of cAMP inhibition of Example 1 was 0.04 nM.
# [4] = molecular target: T3, hsst1 (Homo sapiens, UniProt P30872); assay: Somatostatin receptor radioligand binding assay, hsst1
# T3 construct: expressed in transfected cells
# Procedure, shortened: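 Membranes from CHO-K1 cells stably transfected with each human SSTR subtype, incubated 90 min at 25 °C with 0.05 nM [125I-Tyr11]SS-14 in 50 mM HEPES pH 7.4 with BSA, MgCl2 and protease inhibitors; filtration read-out. Nonspecific binding with 1000 nM SS-14; Ki values reported.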
# [5] = molecular target: T4, hsst5 (Homo sapiens, UniProt P35346); assay: Somatostatin receptor radioligand binding assay, hsst5; conditions: hsst5 Ki, CHO-K1 membranes, [125I-Tyr11]SS-14
# T4 construct: expressed in transfected cells
# Procedure, shortened: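 Membranes from CHO-K1 cells stably expressing hsst5, incubated 90 min at 25 °C with 0.05 nM [125I-Tyr11]SS-14 in 50 mM HEPES pH 7.4 with BSA, MgCl2 and protease inhibitors. Bound ligand collected by filtration. Non-specific binding defined with 1000 nM SS-14.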
# [6] = molecular target: hDA2; assay: Dopamine-2 receptor radioligand binding assay; parameters: species or system human; conditions: [3H]spiperone
# T4 sequence (P35346 whole entry): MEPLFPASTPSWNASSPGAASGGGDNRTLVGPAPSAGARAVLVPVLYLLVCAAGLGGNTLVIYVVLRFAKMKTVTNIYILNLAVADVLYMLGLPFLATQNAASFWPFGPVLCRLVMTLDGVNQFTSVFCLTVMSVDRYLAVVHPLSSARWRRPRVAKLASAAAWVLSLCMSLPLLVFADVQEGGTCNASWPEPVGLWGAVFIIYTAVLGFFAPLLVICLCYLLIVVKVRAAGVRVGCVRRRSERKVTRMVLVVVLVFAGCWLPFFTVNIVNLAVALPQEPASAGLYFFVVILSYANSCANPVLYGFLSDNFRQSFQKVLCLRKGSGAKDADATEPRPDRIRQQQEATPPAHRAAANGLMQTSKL
# T3 sequence (P30872 whole entry): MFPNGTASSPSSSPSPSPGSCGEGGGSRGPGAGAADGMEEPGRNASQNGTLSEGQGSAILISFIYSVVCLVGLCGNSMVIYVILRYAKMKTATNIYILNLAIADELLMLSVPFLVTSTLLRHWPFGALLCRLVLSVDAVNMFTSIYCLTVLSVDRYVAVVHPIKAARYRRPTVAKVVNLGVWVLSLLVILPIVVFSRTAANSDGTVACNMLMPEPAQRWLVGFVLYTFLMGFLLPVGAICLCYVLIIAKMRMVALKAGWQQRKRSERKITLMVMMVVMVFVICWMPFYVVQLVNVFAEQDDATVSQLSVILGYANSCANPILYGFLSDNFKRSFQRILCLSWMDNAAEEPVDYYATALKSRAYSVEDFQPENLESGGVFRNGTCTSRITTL
# T2 sequence (P30874 whole entry): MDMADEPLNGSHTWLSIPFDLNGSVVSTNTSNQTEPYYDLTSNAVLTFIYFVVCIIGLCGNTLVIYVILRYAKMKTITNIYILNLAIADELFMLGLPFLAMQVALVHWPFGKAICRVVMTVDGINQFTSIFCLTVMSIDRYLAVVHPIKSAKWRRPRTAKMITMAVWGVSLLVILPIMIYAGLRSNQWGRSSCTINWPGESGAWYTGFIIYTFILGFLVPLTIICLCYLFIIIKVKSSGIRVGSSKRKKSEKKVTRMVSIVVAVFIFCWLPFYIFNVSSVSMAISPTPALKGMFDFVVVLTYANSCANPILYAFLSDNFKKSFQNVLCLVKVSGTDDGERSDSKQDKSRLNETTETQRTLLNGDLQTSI
# T2 sequence (P14416 whole entry): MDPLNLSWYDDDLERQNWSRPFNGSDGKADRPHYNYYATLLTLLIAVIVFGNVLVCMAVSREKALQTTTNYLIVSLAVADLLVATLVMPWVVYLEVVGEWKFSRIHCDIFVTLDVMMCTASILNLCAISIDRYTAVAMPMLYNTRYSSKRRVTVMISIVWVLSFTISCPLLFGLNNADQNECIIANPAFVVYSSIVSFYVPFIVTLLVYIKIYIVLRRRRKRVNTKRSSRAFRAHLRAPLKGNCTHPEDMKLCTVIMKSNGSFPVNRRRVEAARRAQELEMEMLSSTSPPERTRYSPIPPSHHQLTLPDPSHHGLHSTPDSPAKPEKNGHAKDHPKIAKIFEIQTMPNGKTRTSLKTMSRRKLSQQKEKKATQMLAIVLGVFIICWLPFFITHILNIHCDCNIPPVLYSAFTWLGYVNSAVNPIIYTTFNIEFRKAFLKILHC
# T1 sequence (P30874 whole entry): as the sequence (P30874 whole entry) above
structure (smiles),measurement,setting,value
"CCCN1C[C@H](CSCC(=O)NCCCC[C@@H](NC(=O)CSC[C@@H]2C[C@@H]3c4cccc5[nH]cc(c45)C[C@H]3N(CCC)C2)C(=O)N[C@H]2CSSC[C@@H](C(=O)N[C@H](C(N)=O)[C@@H](C)O)NC(=O)[C@H](CC)NC(=O)[C@H](CCCCN)NC(=O)[C@@H](Cc3c[nH]c4ccccc34)NC(=O)[C@H](Cc3ccc(O)cc3)NC2=O)C[C@@H]2c3cccc4[nH]cc(c34)C[C@H]21 [Example 1, Dop2-DLys(Dop2)-cyclo[Cys-Tyr-DTrp-Lys-Abu-Cys]-Thr-NH2]",Ki,[1],0.03 nM
same,solubility,"[2]; 5% DMA in PBS, PBS pH 7, 5% DMA, by HPLC",0.13 mg/mL
same,solubility,"[2]; 5% DMA in water, Water pH 7, 5% DMA",> 100 mg/mL
same,solubility,"[2]; 5% PEG400 in PBS, PBS pH 7, 5% PEG400, by HPLC",0.05 mg/mL
same,solubility,"[2]; 5% PEG400 in water, Water pH 7, 5% PEG400",> 50 mg/mL
same,solubility,"[2]; 10% DMA in PBS, PBS pH 7, 10% DMA, by HPLC",0.48 mg/mL
same,solubility,"[2]; 10% DMA in water, Water pH 7, 10% DMA",> 100 mg/mL
same,solubility,"[2]; 10% PEG400 in PBS, PBS pH 7, 10% PEG400, by HPLC",0.33 mg/mL
same,solubility,"[2]; 10% PEG400 in water, Water pH 7, 10% PEG400",> 50 mg/mL
same,solubility,"[2]; 20% DMA in PBS, PBS pH 7, 20% DMA, by HPLC",0.78 mg/mL
same,solubility,"[2]; 20% DMA in water, Water pH 7, 20% DMA",> 100 mg/mL
same,solubility,"[2]; 20% PEG400 in PBS, PBS pH 7, 20% PEG400, by HPLC",0.75 mg/mL
same,solubility,"[2]; 20% PEG400 in water, Water pH 7, 20% PEG400",> 50 mg/mL
same,solubility,"[2]; 30% DMA in PBS, PBS pH 7, 30% DMA, by HPLC",4.2 mg/mL
same,solubility,"[2]; 30% DMA in water, Water pH 7, 30% DMA",> 100 mg/mL
same,solubility,"[2]; 30% PEG400 in PBS, PBS pH 7, 30% PEG400, by HPLC",2.98 mg/mL
same,solubility,"[2]; 30% PEG400 in water, Water pH 7, 30% PEG400",> 50 mg/mL
same,solubility,"[2]; 40% DMA in PBS, PBS pH 7, 40% DMA",> 50 mg/mL
same,solubility,"[2]; 40% DMA in water, Water pH 7, 40% DMA",> 100 mg/mL
same,solubility,"[2]; 40% PEG400 in PBS, PBS pH 7, 40% PEG400, by HPLC",3.5 mg/mL
same,solubility,"[2]; 40% PEG400 in water, Water pH 7, 40% PEG400",> 50 mg/mL
same,solubility,"[2]; PBS (0% DMA), PBS pH 7, 0% DMA, by HPLC",0.04 mg/mL
same,solubility,"[2]; water (0% DMA), Water pH 7, 0% DMA, by HPLC",0.86 mg/mL
same,Solubility in water based versus PBS based solvents,[2]; water vs PBS,much more soluble in water based solvents than in PBS based solvents
same,IC50,[3],0.02 nM
same,Ki,[4],843 nM
same,Ki,[5],41.5 nM
same,Ki,[6],15.8 nM
